Seven molecules from patent US20120219559A1 (Johns Hopkins, published 2012) can be followed below.

First the molecules themselves.
B1: ICOS (receptor, Mus musculus, UniProt Q9WVS0 21-200, looked up)
membrane protein: EINGSADHRMFSFHNGGVQISCKYPETVQQLKMRLFREREVLCELTKTKGSGNAVSIKNPMLCLYHLSNNSVSFFLNNPDSSQGSYYFCSLSIFDPPPFQERNLSGGYLHIYESQLCCQLKLWLPVGCAAFVVVLLFGCILIIWFSKKKYGSSVHDPNSEYMFMAAVNTNKKSRLAGVTS
B7: B7-DCIg (Fc fusion, Mus musculus, UniProt Q9WUL5 20-219, looked up)
fusion protein: LFTVTAPKEVYTVDVGSSVSLECDFDRRECTELEGIRASLQKVENDTSLQSERATLLEEQLPLGKALFHIPSVQVRDSGQYRCLVICGAAWDYKYLTVKVKASYMRIDTRILEVPGTGEVQLTCQARGYPLAEVSWQNVSVPANTSHIRTPEGLYQVTSVLRLKPQPSRNFSCMFWNAHMKELTSAIIDPLSRMEPKVPR
notes: Ig fusion protein purchased from R&D systems; also called mouse B7-DCIg fusion protein

For assay [1], the target named is T1, B7-H1Ig (Mus musculus, UniProt Q9EP73).
T1 construct: Ig fusion protein purchased from R&D systems; also called mouse B7-H1Ig fusion protein
Kind of assay: CDS well image, 293T cells transfected with the mouse gene, stained with the mouse fusion protein.

In assay [2] the target is B7. Described as above.
For assay [3], the target named is B7-H1 (Mus musculus, UniProt Q9EP73). Described as above.
The target in assay [4] is T2, mouse B7-H2, full length, expressed on 293T cells (mouse, UniProt Q9JHJ8 44-322).
T2 construct: whole, on cells
T2 sequence (looked up): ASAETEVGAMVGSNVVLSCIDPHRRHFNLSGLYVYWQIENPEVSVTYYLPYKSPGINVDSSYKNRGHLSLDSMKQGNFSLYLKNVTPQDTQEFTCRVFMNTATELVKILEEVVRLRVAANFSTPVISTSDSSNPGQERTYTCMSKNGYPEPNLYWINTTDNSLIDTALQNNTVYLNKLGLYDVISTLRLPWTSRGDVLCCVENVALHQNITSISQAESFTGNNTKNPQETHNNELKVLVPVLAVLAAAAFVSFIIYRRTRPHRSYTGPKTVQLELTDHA
The assay is described as above.

Assay [5] addresses T3, PD-1 (Mus musculus, UniProt Q02242).
T3 sequence (membrane protein, looked up): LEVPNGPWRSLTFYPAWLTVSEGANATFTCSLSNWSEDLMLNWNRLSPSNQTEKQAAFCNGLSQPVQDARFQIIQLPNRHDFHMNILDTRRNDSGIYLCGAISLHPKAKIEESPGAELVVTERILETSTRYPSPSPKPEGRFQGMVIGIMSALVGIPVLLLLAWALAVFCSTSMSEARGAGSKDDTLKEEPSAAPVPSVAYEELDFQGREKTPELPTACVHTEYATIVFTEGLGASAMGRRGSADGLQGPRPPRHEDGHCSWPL
Described as above.

Assay [6] has as its target T4, human B7-2 (CD86, B70) expressed on 293T cells (human, UniProt P42081 24-329).
T4 construct: whole, on cells
T4 sequence (looked up): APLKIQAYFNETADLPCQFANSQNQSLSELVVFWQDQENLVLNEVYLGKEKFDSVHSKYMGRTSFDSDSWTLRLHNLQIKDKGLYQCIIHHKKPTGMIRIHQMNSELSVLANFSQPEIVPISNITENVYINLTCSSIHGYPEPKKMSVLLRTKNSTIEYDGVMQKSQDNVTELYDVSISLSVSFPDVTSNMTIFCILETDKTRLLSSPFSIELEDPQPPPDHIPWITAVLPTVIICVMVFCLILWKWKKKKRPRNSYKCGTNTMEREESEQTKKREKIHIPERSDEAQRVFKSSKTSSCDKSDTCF
Briefly: CDS well image, 293T cells transfected with the human gene, stained with the human fusion protein.

For assay [7], the target named is T5, human B7-H2, full length, expressed on cells (B7-H2+293T cells) (human, UniProt O75144 19-302).
T5 construct: This id also stands for endogenous B7-H2 on monocyte-derived dendritic cells in the functional rows; also called ICOSL; ICOSLG
T5 sequence: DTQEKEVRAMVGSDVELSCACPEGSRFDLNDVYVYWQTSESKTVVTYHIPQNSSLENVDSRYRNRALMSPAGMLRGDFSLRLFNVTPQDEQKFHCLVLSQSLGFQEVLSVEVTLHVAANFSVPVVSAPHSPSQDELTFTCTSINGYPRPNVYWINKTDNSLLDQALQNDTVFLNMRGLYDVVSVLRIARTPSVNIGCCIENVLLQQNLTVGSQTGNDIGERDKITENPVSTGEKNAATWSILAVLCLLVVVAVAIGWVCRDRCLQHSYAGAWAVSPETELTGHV
The assay is described as above.

The target in assay [8] is T6, human B7-DC expressed on 293T cells (human, UniProt Q9BQ51 20-273).
T6 construct: whole, on cells
T6 sequence (looked up): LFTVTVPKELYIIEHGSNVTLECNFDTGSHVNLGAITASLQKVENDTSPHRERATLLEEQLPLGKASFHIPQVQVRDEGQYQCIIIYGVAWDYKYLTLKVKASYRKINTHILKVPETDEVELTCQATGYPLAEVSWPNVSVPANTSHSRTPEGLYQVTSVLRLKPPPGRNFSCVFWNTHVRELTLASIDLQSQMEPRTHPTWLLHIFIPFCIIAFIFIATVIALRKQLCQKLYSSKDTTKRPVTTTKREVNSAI
The assay is described as above.

Assay [9] concerns the target T7, human B7-1 (CD80) expressed on 293T cells (human, UniProt P33681 35-288).
T7 construct: whole, on cells
T7 sequence (looked up): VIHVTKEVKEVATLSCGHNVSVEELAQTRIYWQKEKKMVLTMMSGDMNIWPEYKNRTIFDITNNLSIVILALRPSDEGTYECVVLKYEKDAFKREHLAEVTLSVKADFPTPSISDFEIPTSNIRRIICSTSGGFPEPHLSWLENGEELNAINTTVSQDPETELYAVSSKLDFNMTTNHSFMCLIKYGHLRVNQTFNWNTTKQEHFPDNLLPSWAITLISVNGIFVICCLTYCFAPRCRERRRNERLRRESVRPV
Described as above.

In assay [10] the target is CTLA-4 (Mus musculus, UniProt P09793). Kind of assay: CDS well image, 293T cells transfected with the mouse gene, stained with the mouse fusion protein.
In assay [11] the target is T8, B7-DC (Mus musculus, UniProt Q9WUL5).
T8 sequence (membrane protein, looked up): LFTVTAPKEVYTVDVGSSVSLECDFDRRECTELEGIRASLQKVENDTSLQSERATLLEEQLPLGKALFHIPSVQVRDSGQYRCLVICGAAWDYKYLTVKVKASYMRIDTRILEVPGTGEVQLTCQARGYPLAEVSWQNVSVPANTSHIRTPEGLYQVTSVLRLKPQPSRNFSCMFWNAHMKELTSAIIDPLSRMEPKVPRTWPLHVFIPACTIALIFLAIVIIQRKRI
The assay is described as above.

The target of assay [12] is B1. The assay is described as above.
Assay [13] addresses T9, CD28 (Mus musculus, UniProt P31041).
T9 sequence (membrane protein, looked up): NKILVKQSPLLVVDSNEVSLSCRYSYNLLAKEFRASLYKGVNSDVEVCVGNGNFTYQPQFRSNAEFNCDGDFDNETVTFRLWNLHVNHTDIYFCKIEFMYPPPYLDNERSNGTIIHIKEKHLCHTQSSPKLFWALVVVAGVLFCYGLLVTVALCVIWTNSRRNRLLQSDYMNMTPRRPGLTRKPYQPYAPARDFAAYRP
Described as above.

In assay [14] the target is T10, human B7-H1 expressed on 293T cells (human, UniProt Q9NZQ7 19-290).
T10 construct: whole, on cells
Briefly: CDS well image, 293T cells transfected with the human gene, stained with the human fusion protein.

Chain of B7-H1 (Q9EP73 19-290 limits assumed): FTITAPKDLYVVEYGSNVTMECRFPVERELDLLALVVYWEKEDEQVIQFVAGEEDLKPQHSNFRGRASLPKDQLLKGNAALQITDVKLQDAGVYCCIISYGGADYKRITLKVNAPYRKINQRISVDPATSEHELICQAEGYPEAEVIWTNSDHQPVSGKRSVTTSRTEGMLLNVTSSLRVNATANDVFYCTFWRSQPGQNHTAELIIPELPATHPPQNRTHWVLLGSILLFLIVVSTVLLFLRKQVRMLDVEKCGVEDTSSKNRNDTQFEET
T10 sequence (Q9NZQ7 19-290): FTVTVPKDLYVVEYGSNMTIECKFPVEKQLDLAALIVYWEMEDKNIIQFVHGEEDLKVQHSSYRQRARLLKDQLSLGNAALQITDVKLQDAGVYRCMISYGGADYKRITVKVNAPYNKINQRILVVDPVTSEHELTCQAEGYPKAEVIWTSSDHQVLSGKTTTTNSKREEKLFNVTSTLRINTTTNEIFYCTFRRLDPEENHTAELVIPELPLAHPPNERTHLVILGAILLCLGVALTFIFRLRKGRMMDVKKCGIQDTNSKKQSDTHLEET
T1 sequence (Q9EP73 19-238 limits assumed): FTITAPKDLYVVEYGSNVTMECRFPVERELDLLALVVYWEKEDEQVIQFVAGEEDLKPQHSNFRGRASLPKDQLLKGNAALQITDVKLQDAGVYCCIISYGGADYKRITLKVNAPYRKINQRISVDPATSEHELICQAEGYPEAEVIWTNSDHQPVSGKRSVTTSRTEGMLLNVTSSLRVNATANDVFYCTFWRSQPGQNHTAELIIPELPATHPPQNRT

Take B1: the binding result in assay [1] and in assay [2] was “no binding” in each case.

B2: B7-H2Ig (Fc fusion, Mus musculus, UniProt Q9JHJ8 47-279, looked up)
fusion protein: ETEVGAMVGSNVVLSCIDPHRRHFNLSGLYVYWQIENPEVSVTYYLPYKSPGINVDSSYKNRGHLSLDSMKQGNFSLYLKNVTPQDTQEFTCRVFMNTATELVKILEEVVRLRVAANFSTPVISTSDSSNPGQERTYTCMSKNGYPEPNLYWINTTDNSLIDTALQNNTVYLNKLGLYDVISTLRLPWTSRGDVLCCVENVALHQNITSISQAESFTGNNTKNPQETHNNELK
notes: Ig fusion protein purchased from R&D systems; also called mouse B7-H2Ig fusion protein
Turning to B2, the binding result in assay [3], in [4] and in assay [5] was “no binding” each time.

B3: human B7-1Ig fusion protein (Fc fusion, UniProt P33681 35-242, looked up)
chain: VIHVTKEVKEVATLSCGHNVSVEELAQTRIYWQKEKKMVLTMMSGDMNIWPEYKNRTIFDITNNLSIVILALRPSDEGTYECVVLKYEKDAFKREHLAEVTLSVKADFPTPSISDFEIPTSNIRRIICSTSGGFPEPHLSWLENGEELNAINTTVSQDPETELYAVSSKLDFNMTTNHSFMCLIKYGHLRVNQTFNWNTTKQEHFPDN
notes: Bought from R&D Systems; Ig (Fc) part not given
As for B3, the binding result in [6], in [7], in assay [8] and in assay [9] was “no binding” throughout.

B4: PD-1Ig (Fc fusion, Mus musculus, UniProt Q02242 25-167, looked up)
fusion protein: LEVPNGPWRSLTFYPAWLTVSEGANATFTCSLSNWSEDLMLNWNRLSPSNQTEKQAAFCNGLSQPVQDARFQIIQLPNRHDFHMNILDTRRNDSGIYLCGAISLHPKAKIEESPGAELVVTERILETSTRYPSPSPKPEGRFQ
notes: Ig fusion protein purchased from R&D systems; also called mouse PD-1Ig fusion protein
For the molecule B4, the binding result is “binds” in assay [3]; “no binding” in assay [10]; “binds” in assay [11]; “no binding” in assay [4]; “no binding” in assay [12]; “no binding” in assay [5]. The binding result in assay [13] is listed as “no binding”.

B5: ICOSIg (Fc fusion, Mus musculus, UniProt Q9WVS0 21-144, looked up)
fusion protein: EINGSADHRMFSFHNGGVQISCKYPETVQQLKMRLFREREVLCELTKTKGSGNAVSIKNPMLCLYHLSNNSVSFFLNNPDSSQGSYYFCSLSIFDPPPFQERNLSGGYLHIYESQLCCQLKLWL
notes: Ig fusion protein purchased from R&D systems; also called mouse ICOSIg fusion protein
Regarding B5, the binding result is on record as “no binding” in [3]; “no binding” in assay [10]; “no binding” in [11]; “binds” in [4]; “no binding” in [12]; “no binding” in assay [5]. Besides, the binding result in [13] was “no binding”.

B6: human B7-H2Ig fusion protein (Fc fusion)
chain: DTQEKEVRAMVGSDVELSCACPEGSRFDLNDVYVYWQTSESKTVVTYHIPQNSSLENVDSRYRNRALMSPAGMLRGDFSLRLFNVTPQDEQKFHCLVLSQSLGFQEVLSVEVTLHVAANFSVPVVSAPHSPSQDELTFTCTSINGYPRPNVYWINKTDNSLLDQALQNDTVFLNMRGLYDVVSVLRIARTPSVNIGCCIENVLLQQNLTVGSQTGNDIGERDKITENPVSTGEKNAATWS
notes: Ig (Fc) part not given
As to B6, the binding result in assay [14], in assay [6], in assay [7], in assay [8] and in [9] was “no binding” throughout.

In the case of B7, the binding result in assay [3] was “no binding”; in assay [11], “no binding”; in assay [4], “no binding”; in assay [5] it was “binds”.
